Measured values as given in PMC9482650, “Quantitative fragmentomics allow affinity mapping of interactomes” (Nature Communications, 2022).

Assays:
Assay in all cases: holdup assay
Parameters in all cases: key: below the threshold = too weak to quantify, mostly under pKd 3.1 to 4
APBA3_2, O96018 = target: T1, APBA3_2, O96018
T1 sequence (O96018 480-570, limits assumed, looked up): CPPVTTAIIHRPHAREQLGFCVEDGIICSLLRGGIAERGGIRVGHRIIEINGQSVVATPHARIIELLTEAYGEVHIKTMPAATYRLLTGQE

TJP3_2, O95049 = target: T2, TJP3_2, O95049
T2 sequence (O95049 190-282, limits assumed, looked up): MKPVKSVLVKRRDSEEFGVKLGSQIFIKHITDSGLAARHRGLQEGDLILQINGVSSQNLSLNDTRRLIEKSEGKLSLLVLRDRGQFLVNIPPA

NHERF1_1, O14745 = target: T3, NHERF1_1, O14745
T3 sequence (O14745 9-104, limits assumed, looked up): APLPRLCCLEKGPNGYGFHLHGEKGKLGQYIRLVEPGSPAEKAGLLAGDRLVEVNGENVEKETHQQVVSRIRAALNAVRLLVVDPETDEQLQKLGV

PDZD2_1, O15018 = target: T4, PDZD2_1, O15018
T4 sequence (O15018 80-192, limits assumed, looked up): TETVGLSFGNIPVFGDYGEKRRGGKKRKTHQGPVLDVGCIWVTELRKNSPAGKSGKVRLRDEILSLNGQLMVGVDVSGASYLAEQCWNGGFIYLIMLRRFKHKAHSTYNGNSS

SYNJ2BP, P57105 = target: T5, SYNJ2BP, P57105
T5 sequence (P57105 8-110, limits assumed, looked up): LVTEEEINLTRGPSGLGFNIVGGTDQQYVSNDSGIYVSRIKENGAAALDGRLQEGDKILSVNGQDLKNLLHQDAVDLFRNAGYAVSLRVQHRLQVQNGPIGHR

PDZD4, Q76G19 = target: T6, PDZD4, Q76G19
T6 sequence (Q76G19 125-224, limits assumed, looked up): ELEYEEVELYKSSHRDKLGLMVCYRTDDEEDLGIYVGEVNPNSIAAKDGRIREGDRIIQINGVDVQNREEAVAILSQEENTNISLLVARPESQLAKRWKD

PDZRN4_2, Q6ZMN7 = target: PDZRN4_2, Q6ZMN7
MAGI2_1, Q86UL8 = target: T7, MAGI2_1, Q86UL8
T7 sequence (Q86UL8 12-111, limits assumed, looked up): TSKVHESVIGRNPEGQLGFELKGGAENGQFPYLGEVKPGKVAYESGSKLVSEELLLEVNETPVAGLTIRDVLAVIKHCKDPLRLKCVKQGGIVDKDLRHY

PDZD7_1, Q9H5P4 = target: T8, PDZD7_1, Q9H5P4
T8 sequence (Q9H5P4 81-178, limits assumed, looked up): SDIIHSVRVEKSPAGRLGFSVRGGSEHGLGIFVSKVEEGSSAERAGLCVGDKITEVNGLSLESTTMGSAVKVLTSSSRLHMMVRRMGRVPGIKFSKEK

CNKSR1, Q969H4 = target: T9, CNKSR1, Q969H4
T9 sequence (Q969H4 191-295, limits assumed, looked up): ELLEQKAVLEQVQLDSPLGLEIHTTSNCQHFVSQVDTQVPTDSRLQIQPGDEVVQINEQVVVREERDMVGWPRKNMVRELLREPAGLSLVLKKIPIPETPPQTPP

SDCBP_1, O00560 = target: SDCBP_1, O00560
SHROOM3, Q8TF72 = target: T10, SHROOM3, Q8TF72
T10 sequence (Q8TF72 20-120, limits assumed, looked up): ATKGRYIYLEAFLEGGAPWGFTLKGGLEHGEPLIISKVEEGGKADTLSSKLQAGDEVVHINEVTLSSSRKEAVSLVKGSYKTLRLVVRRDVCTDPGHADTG

MPDZ_11, O75970 = target: T11, MPDZ_11, O75970
T11 sequence (O75970 1720-1817, limits assumed, looked up): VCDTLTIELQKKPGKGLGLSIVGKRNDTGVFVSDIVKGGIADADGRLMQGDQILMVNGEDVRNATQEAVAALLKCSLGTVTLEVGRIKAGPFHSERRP

TJP1_1, Q07157 = target: TJP1_1, Q07157
MAGIX, Q9H6Y5 = target: MAGIX, Q9H6Y5
PDZD2_6, O15018 = target: T12, PDZD2_6, O15018
T12 sequence (O15018 2745-2839, limits assumed, looked up): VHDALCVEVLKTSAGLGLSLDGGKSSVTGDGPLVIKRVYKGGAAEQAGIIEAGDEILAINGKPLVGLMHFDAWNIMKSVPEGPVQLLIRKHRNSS

TJP3_1, O95049 = target: T13, TJP3_1, O95049
T13 sequence (O95049 6-103, limits assumed, looked up): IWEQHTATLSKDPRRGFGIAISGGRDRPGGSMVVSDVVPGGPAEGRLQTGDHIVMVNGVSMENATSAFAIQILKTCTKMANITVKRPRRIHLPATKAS

RIMS1, Q86UR5 = target: RIMS1, Q86UR5
PDZRN3_2, Q9UPQ7 = target: T14, PDZRN3_2, Q9UPQ7
T14 sequence (Q9UPQ7 414-513, limits assumed, looked up): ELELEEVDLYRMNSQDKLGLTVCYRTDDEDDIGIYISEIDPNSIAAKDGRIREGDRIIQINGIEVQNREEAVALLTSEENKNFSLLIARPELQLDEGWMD

PDZD2_5, O15018 = target: T15, PDZD2_5, O15018
T15 sequence (O15018 2617-2716, limits assumed, looked up): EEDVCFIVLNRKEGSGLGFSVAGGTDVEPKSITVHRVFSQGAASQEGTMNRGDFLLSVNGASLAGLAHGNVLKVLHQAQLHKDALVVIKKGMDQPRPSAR

NHERF4_3, Q86UT5 = target: NHERF4_3, Q86UT5
[1] = plain residues with an end cap or a label only (N-terminal biotin on a linker: ttds)
[2] = plain residues with an end cap or a label only (N-terminal biotin on a linker: none)

Measured: pKd

Chain of PDZRN4_2, Q6ZMN7 (Q6ZMN7 389-498): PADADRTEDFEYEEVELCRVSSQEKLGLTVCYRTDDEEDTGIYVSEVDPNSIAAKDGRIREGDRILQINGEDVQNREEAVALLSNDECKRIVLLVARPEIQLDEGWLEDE
Chain of NHERF4_3, Q86UT5 (Q86UT5 325-412): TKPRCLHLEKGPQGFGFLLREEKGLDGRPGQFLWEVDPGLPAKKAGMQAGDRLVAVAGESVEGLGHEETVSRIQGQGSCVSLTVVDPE
Chain of RIMS1, Q86UR5 (Q86UR5 584-692): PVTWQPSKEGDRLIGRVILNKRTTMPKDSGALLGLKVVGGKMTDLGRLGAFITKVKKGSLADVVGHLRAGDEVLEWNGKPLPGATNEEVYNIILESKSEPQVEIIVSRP
Chain of SDCBP_1, O00560 (O00560 111-198): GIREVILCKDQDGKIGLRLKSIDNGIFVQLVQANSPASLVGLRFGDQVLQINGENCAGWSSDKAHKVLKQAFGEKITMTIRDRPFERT
Chain of MAGIX, Q9H6Y5 (Q9H6Y5 118-211): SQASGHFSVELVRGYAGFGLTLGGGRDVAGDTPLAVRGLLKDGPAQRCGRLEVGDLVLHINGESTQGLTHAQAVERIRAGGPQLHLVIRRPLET
Chain of TJP1_1, Q07157 (Q07157 18-120): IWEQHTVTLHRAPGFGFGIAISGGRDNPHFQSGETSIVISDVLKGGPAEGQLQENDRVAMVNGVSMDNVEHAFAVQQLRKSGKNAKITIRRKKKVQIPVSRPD

B1: ATP2B4, P23634 (peptide)
chain: SSLQSLETSV
5.66: SYNJ2BP, P57105; [1]
4.21: APBA3_2, O96018; [1]
4.24: PDZRN4_2, Q6ZMN7; [1]
below the threshold: TJP3_2, O95049; [1] | NHERF1_1, O14745; [1] | PDZD2_1, O15018; [1] | PDZD4, Q76G19; [1] | MAGI2_1, Q86UL8; [1] | PDZD7_1, Q9H5P4; [1] | CNKSR1, Q969H4; [1] | SDCBP_1, O00560; [1] | SHROOM3, Q8TF72; [1] | MPDZ_11, O75970; [1] | TJP1_1, Q07157; [1] | MAGIX, Q9H6Y5; [1] | PDZD2_6, O15018; [1] | TJP3_1, O95049; [1] | RIMS1, Q86UR5; [1] | PDZRN3_2, Q9UPQ7; [1] | PDZD2_5, O15018; [1] | NHERF4_3, Q86UT5; [1]

B2: HPV30-E6, P36809 (peptide)
chain: RHTTSTETAV
below the threshold: APBA3_2, O96018; [1] | TJP3_2, O95049; [1] | NHERF1_1, O14745; [1] | PDZD2_1, O15018; [1] | PDZD4, Q76G19; [1] | MAGI2_1, Q86UL8; [1] | PDZD7_1, Q9H5P4; [1] | CNKSR1, Q969H4; [1] | SDCBP_1, O00560; [1] | SHROOM3, Q8TF72; [1] | MPDZ_11, O75970; [1] | TJP1_1, Q07157; [1] | PDZD2_6, O15018; [1] | TJP3_1, O95049; [1] | RIMS1, Q86UR5; [1] | PDZRN3_2, Q9UPQ7; [1] | PDZD2_5, O15018; [1] | NHERF4_3, Q86UT5; [1]
4.48: PDZRN4_2, Q6ZMN7; [1]
5.35: MAGIX, Q9H6Y5; [1]
5.36: SYNJ2BP, P57105; [1]

B3: SARS-CoV2-E, P0DTC4 (peptide)
chain: NLNSSRVPDLLV
below the threshold: APBA3_2, O96018; [2] | TJP3_2, O95049; [2] | NHERF1_1, O14745; [2] | PDZD2_1, O15018; [2] | SYNJ2BP, P57105; [2] | PDZD4, Q76G19; [2] | PDZRN4_2, Q6ZMN7; [2] | MAGI2_1, Q86UL8; [2] | PDZD7_1, Q9H5P4; [2] | CNKSR1, Q969H4; [2] | SDCBP_1, O00560; [2] | SHROOM3, Q8TF72; [2] | MPDZ_11, O75970; [2] | TJP1_1, Q07157; [2] | MAGIX, Q9H6Y5; [2] | TJP3_1, O95049; [2] | RIMS1, Q86UR5; [2] | PDZRN3_2, Q9UPQ7; [2] | PDZD2_5, O15018; [2] | NHERF4_3, Q86UT5; [2]
4.07: PDZD2_6, O15018; [2]
